The values that follow come from patent US20210155689A1 (SHANGHAI PHARMAEXPLORER, published 2021).

Where a chain is given by its changes, count along the chain named.

The target in test [1] is T1, human LAG-3 protein with hFc tag (hLAG-3-hFc protein) (human, UniProt P18627 23-450).
T1 construct: also called immunogen 1; LAG-3 extracellular domain protein; not shown: human IgG Fc fragment (hFc) of the pCpC vector
T1 sequence: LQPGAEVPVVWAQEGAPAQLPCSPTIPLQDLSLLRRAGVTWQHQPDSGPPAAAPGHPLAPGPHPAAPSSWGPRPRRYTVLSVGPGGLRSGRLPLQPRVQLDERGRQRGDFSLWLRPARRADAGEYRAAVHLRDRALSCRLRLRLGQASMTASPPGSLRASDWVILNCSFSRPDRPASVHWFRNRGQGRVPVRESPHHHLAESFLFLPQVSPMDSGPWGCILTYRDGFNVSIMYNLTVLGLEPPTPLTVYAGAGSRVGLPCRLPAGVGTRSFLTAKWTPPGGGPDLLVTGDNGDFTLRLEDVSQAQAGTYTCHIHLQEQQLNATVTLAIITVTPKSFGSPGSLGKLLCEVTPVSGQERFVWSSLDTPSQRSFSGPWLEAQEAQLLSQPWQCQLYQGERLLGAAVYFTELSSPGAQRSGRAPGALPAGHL
Put plainly: FACS, blocks LAG-3-hFc binding to MHC II on Raji; 0.823 nM. The procedure: The FACS reaction plate incubating the Raji cells was centrifuged to discard the supernatant. The above mixture was added as 100 μl per well to Raji cells and incubated on ice for 1-2 hours. The plate was washed twice with blocking solution (PBS, 2% fetal bovine serum) by centrifugation, added with 100 microliters of fluorescent (Alexa 488)-labeled secondary antibodies per well, and incubated on ice for 1.0 hours. The plate was washed 2-3 times by centrifugation with blocking solution (PBS, 2% fetal bovine serum), added with 100 microliters of PBS per well to suspend cells, and detected using FACS (FACS Calibur, BD) and the results were analyzed. Wherein, the IgG control was murine IgG, and the data in the table is the inhibition rate (%).
On the technique in general: Flow cytometry measures light scatter and fluorescence of single cells or particles in a stream.

For test [2], the target named is T2, human LAG-3 on cells (HEK293-hLAG-3 stable cell line) (human, UniProt P18627 23-525).
T2 sequence: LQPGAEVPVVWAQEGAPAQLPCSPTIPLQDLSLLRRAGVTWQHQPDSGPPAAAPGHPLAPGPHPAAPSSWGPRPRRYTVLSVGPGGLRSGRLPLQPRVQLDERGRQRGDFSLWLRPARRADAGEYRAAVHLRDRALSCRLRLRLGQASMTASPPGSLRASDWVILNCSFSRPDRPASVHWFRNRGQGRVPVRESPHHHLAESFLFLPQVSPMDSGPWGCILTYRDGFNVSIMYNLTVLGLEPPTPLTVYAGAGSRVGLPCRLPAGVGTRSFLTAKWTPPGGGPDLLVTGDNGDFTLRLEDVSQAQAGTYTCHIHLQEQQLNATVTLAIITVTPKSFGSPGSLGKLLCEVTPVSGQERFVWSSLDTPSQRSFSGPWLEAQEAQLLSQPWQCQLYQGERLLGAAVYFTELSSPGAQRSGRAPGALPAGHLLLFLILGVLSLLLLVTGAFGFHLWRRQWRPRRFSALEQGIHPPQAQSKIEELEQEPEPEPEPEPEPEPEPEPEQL
Put plainly: FACS, HEK293-hLAG-3, antibody 0.064 nM. The text has this:
(§1) The pIRES plasmid with the monkey-derived full-length gene was transfected into the HEK293 cell line to construct a HEK293 stable cell line containing monkey LAG-3 (herein referred to as HEK293-cLAG-3 stable cell line). The HEK293-hLAG-3 stable cell line and HEK293-cLAG-3 stable cell line were expanded in a T-75 cell culture flask to a 90% confluence. The medium was aspirated, and the cells were washed with HBSS (Hanks' Balanced Salt Solution) 1-2 times, then treated with a enzyme-free cell dissociation fluid (Versene solution: Life technology) and the cells were collected. The cells were washed with HBSS buffer for 1-2 times. After counted, the cells were diluted with HBSS to 1-2×10⁶ cells per ml, added with 1% goat serum blocking solution, incubated on ice for 20-30 minutes, and then washed with HBSS for 2 times by centrifugation. The collected cells were suspended in the FACS buffer (HBSS+1% BSA) to 2×10⁶ cells/ml, added as 100 microliters per well to a 96-well FACS reaction plate, added with 100 microliters per well of the antibody sample to be tested, incubated on ice for 1-2 hours. The plate was washed twice with the FACS buffer by centrifugation, added with 100 microliters of fluorescent (Alexa 488)-labeled secondary antibodies per well, and incubated on ice for 0.5-1.0 hours. The plate was washed 2-3 times with FACS buffer by centrifugation, added with 100 μl fixative solution (4% Paraformaldehyde) per well to suspend the cells. 5-10 minutes later, it was washed 1-2 times with FACS buffer by centrifugation. The cells were suspended with 100 microliters of FACS buffer, FACS (FACSCalibur, BD) was used for detection and the results were analyzed.

For test [3], the target named is T2, human LAG-3 on cells (HEK293-hLAG-3 …). Put plainly: FACS, HEK293-hLAG-3, antibody 40.000 nM.
Description: as §1

In test [4] the target is T1, human LAG-3 protein with hFc tag …. Put plainly: ELISA, hLAG-3-hFc coated; 0.0000 nM. Here is the method:
(§2) The plate was sealed with plastic film and incubated overnight at 4° C. The plate was washed 2 times with the plate washing solution (PBS+0.01% Tween20) on the next day, and added with the blocking solution (PBS+0.01% Tween20+1% BSA) and blocked at room temperature for 1-2 hours. The blocking solution was poured out, and the plate was added with 50-100 μl of the antibody sample to be tested to each well, incubated at 37° C. for 1-2 hours, and washed 2-3 times with a plate washing solution (PBS+0.01% Tween20). HRP (horseradish peroxidase) labeled secondary antibody was added, and the plate was incubated at 37° C. for 1-2 hours, and washed 2-3 times with a plate washing solution (PBS+0.01% Tween20). 100 μl of TMB substrate was added to each well. After incubated at room temperature for 15-30 minutes, the plate was added with 100 μl of stop solution (1.0N HCl) to each well.
On the technique in general: ELISA stands for enzyme-linked immunosorbent assay.

For test [5] the target is unchanged. Put plainly: ELISA, hLAG-3-hFc coated; 0.0067 nM. Here is the method: as §2
For test [6] the target is unchanged. The experiment in a line: ELISA, hLAG-3-hFc coated; 0.6667 nM. Here is the method: as §2

B1: 405B8H3 (mouse antibody purified from hybridoma) (antibody, V domains shown)
VH: QVQLQQSGAELVRPGASVTLSCKASGYTFTDYEMHWVKQTPVHGLEWIGATDPETGNSAYNQKFKGKAIMTADKSSSTAYMELRSLTSEDSAVYYCISTGWNDWGQGTSLTVSS
VL: DIKMTQSPSSMYASLGERVTITCKASQDINSYLSWFQQKPGKSPKTLIYRADRLLDGVPSRFSGSGSGQDYSLTISSLEYGDMGIYYCLQYDEFPYTFGGGTKLEIK
notes: also called mAb103-405B8H3; 405B81-13
For the molecule B1, in test [1], the “Inhibition rate (%)” value is 10.9%.

B2: 105F1E10 (mouse antibody purified from hybridoma) (antibody, V domains shown)
VH: EVQLQQSGPELVKPGASVKMSCRASGYTFTDFKMHWMKQSHGKSLEWIGYIAPNNGGTAYNQKFRGKATLTVNESSNTAYMELRSLTSEDSAVYYCVDWDDVDYWGQGTTLTVSS
VL: B1 VL with P40S, D52N, L55V, G81E, D92V, Y96L, G100A, I106L
notes: also called mAb009-105F1E10
For the molecule B2, in test [1], the “Inhibition rate (%)” value stood at 7%.

B3: 105F1E10 mouse-human chimeric antibody (antibody, V domains shown)
VH: B2 VH
VL: B1 VL with P40S, D52N, L55V, G81E, D92V, Y96L, G100A, I106L
notes: also called mAb009-105F1E10
Consider B3, for which the Mean fluorescence intensity in test [2] stood at 5.1; in test [3], 146.

B4: 405B8H3 (LAG-3 mouse-human chimeric antibody) (antibody, V domains shown)
VH: B1 VH
VL: B1 VL
notes: also called mouse-human chimeric antibody 405B8H3
Take B4: the OD450 was 0.12 OD450 in test [4], 0.57 OD450 in test [5] and 3.51 OD450 in test [6].

B5: 105F1E10 (LAG-3 mouse-human chimeric antibody) (antibody, V domains shown)
VH: B2 VH
VL: B1 VL with P40S, D52N, L55V, G81E, D92V, Y96L, G100A, I106L
As to B5, the OD450 was 0.11 OD450 in test [4], 0.3 OD450 in test [5] and 3.46 OD450 in test [6].

B6: 405B8H3 mouse-human chimeric antibody (antibody, V domains shown)
VH: B1 VH
VL: B1 VL
notes: also called mAb103-405B8H3
Consider B6, for which the figures for the Mean fluorescence intensity in test [2] and in test [3] were 6.3 and 158, respectively.

B7: 409D4E10 (mouse antibody purified from hybridoma) (antibody, V domains shown)
VH: B1 VH with Y27N, G56D, S58T, M70L, A72T, S98T, T99S
VL: B1 VL with D52N, G81E, D92N
notes: also called mAb112-409D4E10
As for B7, in test [1], the “Inhibition rate (%)” value is 18.2%.

B8: 409D4E10 mouse-human chimeric antibody (antibody, V domains shown)
VH: B1 VH with Y27N, G56D, S58T, M70L, A72T, S98T, T99S
VL: B1 VL with D52N, G81E, D92N
notes: also called mAb112-409D4E10
B8: the Mean fluorescence intensity in test [2] turned out to be 6.3; in test [3], 140.

B9: 409B11E12 (mouse antibody purified from hybridoma) (antibody, V domains shown)
VH: B1 VH with P41T, G56S, N57Y, M70L, S98A
VL: B1 VL with I2L, D52N, G81E
notes: also called mAb104-409B11E12
As for B9, in test [1], the “Inhibition rate (%)” value worked out at 15.3%.

B10: 409B11E12 mouse-human chimeric antibody (antibody, V domains shown)
VH: B1 VH with P41T, G56S, N57Y, M70L, S98A
VL: B1 VL with I2L, D52N, G81E
notes: also called mAb104-409B11E12
Regarding B10, the results for the Mean fluorescence intensity in test [2] and in test [3] were 6.3 and 150, respectively.

B11: 409B11E12 (LAG-3 mouse-human chimeric antibody) (antibody, V domains shown)
VH: B1 VH with P41T, G56S, N57Y, M70L, S98A
VL: B1 VL with I2L, D52N, G81E
Take B11: the OD450 is 0.13 OD450 in test [4], 0.47 OD450 in test [5] and 3.55 OD450 in test [6].

B12: 409D4E10 (LAG-3 mouse-human chimeric antibody) (antibody, V domains shown)
VH: B1 VH with Y27N, G56D, S58T, M70L, A72T, S98T, T99S
VL: B1 VL with D52N, G81E, D92N
As for B12, the OD450 stood at 0.14 OD450 in test [4], 0.63 OD450 in test [5] and 3.76 OD450 in test [6].

B13: 556F6B8 mouse-human chimeric antibody (antibody, V domains shown)
VH: RVQLKQSGPGLVQPSQSLSITCTVSGFSLIKYGVHWVRQSPGEGLEWLGVIWRGGITDYNAAFMSRLSITKDNSKSQVFFKMNSLQADDTAIYYCAKWDGPLAMDYWGQGTSVTVSS
VL: DIVMTQSHKFLSTSVGDRVSITCKASQDVGTTVAWYQQKPGQSPKLLIYWASTRHTGVPDRFTGSGSGTDFTLTISNVQSEDLADYFCQQYSSYPYTFGGGTKLEIK
notes: also called mAb123-556F6B8; 556F8B8
As to B13, the Mean fluorescence intensity stood at 6.5 in test [2] and 123 in test [3].

B14: 556F6B8 (LAG-3 mouse-human chimeric antibody) (antibody, V domains shown)
VH: B13 VH
VL: B13 VL
notes: also called 556F8B8
Turning to B14, the OD450 in test [4] stood at 0.12 OD450; in test [5], 0.38 OD450; in test [6], 3.76 OD450.

B15: 556F6B8 (mouse antibody purified from hybridoma) (antibody, V domains shown)
VH: B13 VH
VL: B13 VL
notes: also called mAb123-556F6B8
B15: the “Inhibition rate (%)” value in test [1] was 20.1%.
